This note sets out measurements from publication PMC10202830, “Cingulin and paracingulin tether myosins-2 to junctions to mechanoregulate the plasma membrane” (The Journal of Cell Biology, 2023).

In experiment [1] the target is His-tagged hCGN Rod2 (667–1203), purified (human) (UniProt Q9P2M7). In words: MST; labelled target His-tagged hCGN Rod2 (red tris-NTA dye, 200 nM); ligands hNM2A rod or hNM2B rod 0–10,000 nM; PBS with 0.05% Tween 20; Monolith NT.115 fit; n = 7.
For experiment [2], the target named is T1, His-tagged mZU5 (1520–1745) (mouse, UniProt P39447 1520-1745).
T1 construct: mouse ZO-1, residues 1520-1745 (ZU5-containing region); Labelled with the red tris-NTA dye through its His tag in the MST; also called ZU5-containing region of mZO-1 (residues 1520–1745); ZU5-containing fragment
T1 sequence (looked up): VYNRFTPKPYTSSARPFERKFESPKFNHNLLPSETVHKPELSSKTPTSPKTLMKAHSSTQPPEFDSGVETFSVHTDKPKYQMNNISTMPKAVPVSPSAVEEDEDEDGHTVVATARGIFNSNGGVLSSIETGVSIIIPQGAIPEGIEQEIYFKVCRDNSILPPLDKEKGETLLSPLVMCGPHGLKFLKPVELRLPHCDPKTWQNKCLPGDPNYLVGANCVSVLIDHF
Briefly: MST; labelled target His-tagged mZU5 (1520–1745; red tris-NTA dye, 50 nM); GST-mCGN (1–112) or GST-mCGNL1 (1–122) 0–1,000 nM in PBS-T; Monolith NT.115 fit; n = 5.

For experiment [3], the target named is T2, CGN (Mus musculus (Mouse), UniProt P59242).
T2 chain: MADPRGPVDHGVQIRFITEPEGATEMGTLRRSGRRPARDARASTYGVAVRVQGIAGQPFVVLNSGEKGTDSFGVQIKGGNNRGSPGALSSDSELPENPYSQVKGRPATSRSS
Briefly: MST, GST-fusion ligands (GST dimer).

For experiment [4], the target named is T3, CGNL1 (Mus musculus (Mouse), UniProt Q6AW69).
T3 chain: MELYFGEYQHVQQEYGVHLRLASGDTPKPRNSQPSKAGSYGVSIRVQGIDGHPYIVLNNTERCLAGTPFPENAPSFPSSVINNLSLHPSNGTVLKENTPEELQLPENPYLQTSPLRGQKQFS
In words: MST, GST-fusion ligands (GST dimer).

Experiment [5] concerns the target T4, full-length hCGNL1 (10xHis-2xStrep), purified (human, UniProt Q0VF96 1-1302).
T4 construct: human paracingulin (CGNL1), 1–1,302aa, in pACEBac1; the plasmid list prints this construct as 'hCGN-FL-10xHis-2xStrep (1–1,302aa; S2518)'; also called His-tagged full-length CGNL1; purified CGNL1; source: baculovirus-infected insect cells, purified (StrepTag resin)
T4 sequence (looked up): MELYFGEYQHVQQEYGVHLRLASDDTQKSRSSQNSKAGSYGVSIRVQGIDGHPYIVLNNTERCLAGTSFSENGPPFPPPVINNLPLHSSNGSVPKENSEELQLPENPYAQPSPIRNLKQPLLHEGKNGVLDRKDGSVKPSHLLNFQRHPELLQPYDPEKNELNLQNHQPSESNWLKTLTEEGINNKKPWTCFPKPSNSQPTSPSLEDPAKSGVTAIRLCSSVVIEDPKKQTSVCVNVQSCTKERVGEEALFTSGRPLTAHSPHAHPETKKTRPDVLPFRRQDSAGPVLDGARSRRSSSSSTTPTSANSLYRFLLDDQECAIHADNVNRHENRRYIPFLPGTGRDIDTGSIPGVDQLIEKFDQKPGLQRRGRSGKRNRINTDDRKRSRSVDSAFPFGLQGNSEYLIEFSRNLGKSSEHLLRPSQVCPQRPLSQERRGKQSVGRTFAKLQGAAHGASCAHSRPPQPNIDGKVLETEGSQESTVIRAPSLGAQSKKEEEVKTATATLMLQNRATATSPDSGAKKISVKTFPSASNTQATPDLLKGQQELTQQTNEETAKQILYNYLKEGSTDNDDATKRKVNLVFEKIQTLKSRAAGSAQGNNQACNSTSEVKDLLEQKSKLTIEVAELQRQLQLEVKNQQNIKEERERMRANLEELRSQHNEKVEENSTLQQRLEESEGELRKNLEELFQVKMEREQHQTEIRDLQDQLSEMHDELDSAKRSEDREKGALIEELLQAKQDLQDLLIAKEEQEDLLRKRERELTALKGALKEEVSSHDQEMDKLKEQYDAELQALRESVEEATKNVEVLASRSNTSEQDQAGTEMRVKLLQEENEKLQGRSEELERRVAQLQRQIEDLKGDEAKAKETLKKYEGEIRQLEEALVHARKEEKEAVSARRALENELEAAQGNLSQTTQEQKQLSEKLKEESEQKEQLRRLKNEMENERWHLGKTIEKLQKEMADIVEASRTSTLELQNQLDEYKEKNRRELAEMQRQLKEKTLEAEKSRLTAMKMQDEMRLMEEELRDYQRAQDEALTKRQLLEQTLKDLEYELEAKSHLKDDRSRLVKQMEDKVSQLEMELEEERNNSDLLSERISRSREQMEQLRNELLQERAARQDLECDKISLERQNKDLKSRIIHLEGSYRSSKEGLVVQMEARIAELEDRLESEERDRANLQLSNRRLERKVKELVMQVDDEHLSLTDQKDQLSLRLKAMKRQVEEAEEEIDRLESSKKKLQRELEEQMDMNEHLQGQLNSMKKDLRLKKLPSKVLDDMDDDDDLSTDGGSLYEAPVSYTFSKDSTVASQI
In words: pull-down; affinity purified GST-tagged cNM2A, cNM2B, cNM2C rod fragments as baits; His-tagged full-length CGN and CGNL1 purified from baculovirus-infected insect cells as preys; IB with anti-His (Fig. 1 H–J). The note with it: both partners purified.

Where two headings read alike, the source gives them in different places.

His-tagged hCGN Rod2 (667–1203), purified (human), sequence (Q9P2M7 667-1203): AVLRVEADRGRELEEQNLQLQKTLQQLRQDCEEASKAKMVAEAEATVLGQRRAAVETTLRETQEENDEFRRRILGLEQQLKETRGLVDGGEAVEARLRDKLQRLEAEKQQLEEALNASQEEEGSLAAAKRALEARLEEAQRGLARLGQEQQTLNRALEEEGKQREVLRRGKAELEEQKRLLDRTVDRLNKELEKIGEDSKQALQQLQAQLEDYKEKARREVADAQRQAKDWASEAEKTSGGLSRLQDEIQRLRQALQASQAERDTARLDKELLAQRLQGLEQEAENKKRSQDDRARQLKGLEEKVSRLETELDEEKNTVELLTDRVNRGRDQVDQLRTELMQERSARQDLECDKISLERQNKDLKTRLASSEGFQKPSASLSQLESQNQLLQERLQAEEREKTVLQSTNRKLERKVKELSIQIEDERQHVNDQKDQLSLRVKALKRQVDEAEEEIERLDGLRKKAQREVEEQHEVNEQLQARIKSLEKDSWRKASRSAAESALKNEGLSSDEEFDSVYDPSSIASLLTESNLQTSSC

Take “hNM2A rod (1330–1960), purified (from UniProt P35579 1330-1960) (domain or fragment)”: the Kd (commonly a measure of binding affinity in units of concentration) in experiment [1] is 3620 nM.

In experiment [2], “GST-mCGN (1–112) (from UniProt P59242 1-112) (domain or fragment)” gave a dissociation constant (Kd) of 7.7 nM.

“hNM2B rod (1337–1976), purified (from UniProt P35580 1337-1976) (domain or fragment)”: the Kd in experiment [1] worked out at 346 nM.

B1: ZO1 (protein)
chain: EDEDEDGHTVVATARGIFNSNGGVLSSIETGVSIIIPQGAIPEGIEQEIYFKVCRDNSILPPLDKEKGETLLSPLVMCGPHGLKFLKPVELRLPHCDPKTWQNKCLPGDPNYLVGANCVSVLIDHF
Take B1: the Kd is 7.7 nM in experiment [3] and 79.8 nM in experiment [4].

B2: GST-mCGNL1 (1–122) (domain or fragment)
chain: MELYFGEYQHVQQEYGVHLRLASGDTPKPRNSQPSKAGSYGVSIRVQGIDGHPYIVLNNTERCLAGTPFPENAPSFPSSVINNLSLHPSNGTVLKENTPEELQLPENPYLQTSPLRGQKQFS
B2: binding in experiment [2] (both partners purified) was characterised by a dissociation constant (Kd) of 79.8 nM.

B3: GST-cNM2A (1711–1960) (domain or fragment, canis (dog), UniProt Q258K2 1711-1960, looked up)
chain: ANSSGKGALALEEKRRLEARIAQLEEELEEEQGNTELVNDRLKKANLQIDQINTDLNLERSHAQKNENARQQLERQNKELKVKLQEMEGTVKSKYKASITALEAKIAQLEEQLDNETKERQAACKQVRRAEKKLKDVLLQVDDERRNAEQFKDQADKASTRLKQLKRQLEEAEEEAQRANASRRKLQRELEDATETADAMNREVSSLKNKLRRGDLPFVVPRRVARKGAGDCSDEEVDGKADGAEAKAAE
notes: canis nonmuscle myosin-2A heavy chain, rod and tail fragment 1711-1960; also called last 250 residues of NM2A; not shown: GST, N-terminal, kept
In the case of B3, the binding result in experiment [5] was “binds”.

B4: GST-cNM2A (1461–1960) (domain or fragment, canis (dog), UniProt Q258K2 1461-1960, looked up)
chain: AEERDRAEAEAREKETKALSLARALEEAMEQKAELERLNKQFRTEMEDLMSSKDDVGKSVHELEKSKRALEQQVEEMKTQLEELEDELQATEDAKLRLEVNLQAMKAQFERDLQGRDEQSEEKKKQLVRQVREMEAELEDEKKQRSMAVAARKKLEMDLKDLEAHIDSANKNRDEAIKQLRKLQAQMKDCVRELDDTRASREEILAQAKENEKKMKSMEAEMIQLQEELAAAERAKRQAQQERDELADEIANSSGKGALALEEKRRLEARIAQLEEELEEEQGNTELVNDRLKKANLQIDQINTDLNLERSHAQKNENARQQLERQNKELKVKLQEMEGTVKSKYKASITALEAKIAQLEEQLDNETKERQAACKQVRRAEKKLKDVLLQVDDERRNAEQFKDQADKASTRLKQLKRQLEEAEEEAQRANASRRKLQRELEDATETADAMNREVSSLKNKLRRGDLPFVVPRRVARKGAGDCSDEEVDGKADGAEAKAAE
notes: canis nonmuscle myosin-2A heavy chain, rod fragment 1461-1960; also called NM2A rod bait, last ≈500 residues; not shown: GST, N-terminal, kept
Take B4: the binding result in experiment [5] is “binds”.
